In US20140056907A1 (Regeneron, published 2014):

Experiments:
human ASIC1 [1] = biological target: T1, human ASIC1 (human, UniProt P78348 1-528); assay: cell-based or functional assay
T1 sequence: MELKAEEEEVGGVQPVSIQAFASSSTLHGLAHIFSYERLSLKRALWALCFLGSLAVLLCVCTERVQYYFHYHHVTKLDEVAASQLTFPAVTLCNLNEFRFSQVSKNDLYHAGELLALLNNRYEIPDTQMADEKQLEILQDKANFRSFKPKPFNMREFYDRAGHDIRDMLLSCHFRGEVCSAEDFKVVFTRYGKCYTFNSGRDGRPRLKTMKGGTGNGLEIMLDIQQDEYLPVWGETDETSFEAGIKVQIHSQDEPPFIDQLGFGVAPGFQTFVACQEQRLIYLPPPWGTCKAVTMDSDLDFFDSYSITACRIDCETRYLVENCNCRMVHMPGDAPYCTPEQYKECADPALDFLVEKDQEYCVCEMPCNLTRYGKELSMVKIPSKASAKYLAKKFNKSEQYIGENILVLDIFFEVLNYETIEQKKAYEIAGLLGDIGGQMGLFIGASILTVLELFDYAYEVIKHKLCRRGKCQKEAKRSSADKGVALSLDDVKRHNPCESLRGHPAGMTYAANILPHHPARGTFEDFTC

human ASIC1 [2] = biological target: T1, human ASIC1; assay: FACS titration, 3T3/hASIC1 cells
[3] = biological target: T2, human ASIC1/ASIC3 channels (co-expressed human ASIC1a and human ASIC3) (human, UniProt Q9UHC3 1-531); assay: FACS, 3T3/hASIC1/3 cells, 10 nM antibody
T2 construct: whole, on cells; 3T3 cells co-expressing both subunits; also called 3T3/hASIC1/3; 3T3-hASIC1/ASIC3
T2 sequence 1: T1 sequence
T2 sequence 2: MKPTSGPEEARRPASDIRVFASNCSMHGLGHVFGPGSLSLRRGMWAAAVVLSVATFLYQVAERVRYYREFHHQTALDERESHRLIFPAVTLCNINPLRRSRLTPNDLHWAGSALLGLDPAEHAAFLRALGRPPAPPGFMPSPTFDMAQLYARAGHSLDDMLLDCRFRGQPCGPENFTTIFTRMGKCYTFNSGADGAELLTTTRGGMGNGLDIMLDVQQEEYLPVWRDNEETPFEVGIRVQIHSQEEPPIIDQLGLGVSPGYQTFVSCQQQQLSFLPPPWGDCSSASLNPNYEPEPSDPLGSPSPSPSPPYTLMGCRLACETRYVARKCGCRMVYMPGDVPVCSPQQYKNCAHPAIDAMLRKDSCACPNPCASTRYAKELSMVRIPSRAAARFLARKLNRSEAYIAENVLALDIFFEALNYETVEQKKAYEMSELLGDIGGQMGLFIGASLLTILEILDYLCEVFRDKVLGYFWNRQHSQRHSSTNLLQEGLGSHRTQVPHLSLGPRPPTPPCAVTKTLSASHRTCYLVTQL
Source text: For these experiments, four cell lines were constructed: (a) a mouse fibroblast 3T3 cell line stably transfected to overexpress full length human ASIC3 (3T3/hASIC3; amino acids 1-531 of NCBI accession number NP_{—}004760.1), (b) a 3T3 cell line stably transfected to co-express full length human ASIC1a and human ASIC3 (3T3/hASIC1/3; amino acids 1-528 of NCBI accession number NP_{—}001086.2 and amino acids 1-531 of NCBI accession number NP_{—}004760.1), (c) […] a stably transfected 3T3 cell line expressing the full-length mouse ASIC3 channel (3T3/mASIC3; amino acids 1-530 of NCBI accession number NP_{—}892045.2), and (d) a 3T3 cell line stably transfected to co-express full length mouse ASIC1a and mouse ASIC3 (3T3/mASIC1/3; amino acids 1-526 of NCBI accession number NP_{—}033727 and amino acids 1-530 of NCBI accession number NP_{—}892045.2). Antibody binding was determined using flow cytometry (FACS).
To perform the FACS binding experiments, adherent cells were collected with cold Millipore Accutase 3-5 minutes, spun and resuspended in ice-cold FACS buffer (PBS, 2% HI-FBS and 0.09% Na-azide). Anti-ASIC1 antibody at final concentrations of 10 nM was added for 20-30 minutes on ice. Cells were washed with 900 μL ice-cold FACS buffer, spun, and resuspended in 100 μL ice-cold FACS buffer. A secondary antibody which recognizes human Fc (Jackson Immuno Research, #109-136-098) and is conjugated to allophycocyanin, was then added to the cell mixture at a final concentration of 2.5 ug/mL. After incubating for 20 minutes on ice, the cells were washed and resuspended in FACS buffer, then sorted and analyzed on a flow cytometer (FACSCanto II, BD Biosciences, San Jose, Calif.) to determine relative binding by the candidate antibodies to the tested cell lines. Histograms of cells stained with anti-ASIC1 antibodies were compared with those of cells stained with secondary antibody alone. Percentage of ASIC1 signal over secondary antibody alone was calculated using FlowJo software (Tree Star, Ashland, Oreg.).

B1: H3M7102N (antibody, V domains shown)
VH: EVQLLASGGGLVQPGGSLRLSCAASGFTFSSFAMSWVRQAPGKGLEWVSGISGSGGSTYYADSVKGRFTISRDNSKNTLYLQMNSLRAEDTAAYYCAKEAYKWQPWGQGIRVTVSS
VL: DIQMTQSPSTLSASVGDRVSITCRASQSISSWLAWYQQKPGKAPKLLIYKASNLDSGVPSRFSGSGSGTDFTLTISSLQPDDFATYYCQQYNSYSYTFGQGTKLEIK
notes: Chimeric: human variable, mouse constant domains; H3M prefix marks the Fc, isotype not spelled out
Q: What does the source list for B1?
A: Current inhibition (%) at 100 nM antibody, Q-Patch, pH 6.0 (human ASIC1 [1]): 100%; EC50 (human ASIC1 [2]): 5.4 nM; binding result [3]: binds

B2: H3M6726N (antibody, V domains shown)
VH: EVQLLESGGVLVQPGGSLRLSCAASGFNFNNYDMSWVRQAPGKGLEWVSVISASGRNTYYADSVKGRFTISRDNSKISLYLQMNSLRPEDTAVYYCAKDHLVHYYYGMDVWGQGTTVTVSS
VL: DIMMTQSPLSLSVTPGEPASISCRSSQSLLHSNGYNYLDWYLQKSGQSPHLLIYLGSNRASGVPDRFSGSGSGTDFTLKISRVEAEDGGVYYCMQALQTPRTFGQGTKVEIK
notes: as for B1
Q: What does the source list for B2?
A: Current inhibition (%) at 100 nM antibody, Q-Patch, pH 6.0 (human ASIC1 [1]): 85%; EC50 (human ASIC1 [2]): 2.6 nM; binding result [3]: binds
